Experimental data published in publication PMC6547884, “Molecular Basis for poly(A) RNP Architecture and Recognition by the Pan2-Pan3 Deadenylase” (Cell, 2019).

Tests used:
[1] = molecular target: the molecule itself; experiment: cryo-EM structure; Pan2cat-Pan3 with 90A RNA and three Pab1, reconstituted as for SEC and purified on Superose 6; overall nominal resolution 4.8 Å, focused maps 4.7 and 4.5 Å
[2] = molecular target: T1, Ccr4(110-837)-Caf1(146-433) complex (S. cerevisiae, UniProt P31384 110-837; P39008 146-433); experiment: SEC; reconstitution: purified Not1(754-1000) mixed with Ccr4(110-837)-Caf1(146-433) in equimolar amounts; Superdex200 16/60, 20 mM Tris pH 7.5, 250 mM NaCl, 1 mM DTT; conditions: both partners purified
T1 construct: The complex is His-tagged; also called core yeast Ccr4-Caf1 nucleases; source: Trichoplusia ni Hi5 insect cells (pFastBac DUAL), purified (IMAC, heparin, SEC)
T1 sequence (looked up) 1: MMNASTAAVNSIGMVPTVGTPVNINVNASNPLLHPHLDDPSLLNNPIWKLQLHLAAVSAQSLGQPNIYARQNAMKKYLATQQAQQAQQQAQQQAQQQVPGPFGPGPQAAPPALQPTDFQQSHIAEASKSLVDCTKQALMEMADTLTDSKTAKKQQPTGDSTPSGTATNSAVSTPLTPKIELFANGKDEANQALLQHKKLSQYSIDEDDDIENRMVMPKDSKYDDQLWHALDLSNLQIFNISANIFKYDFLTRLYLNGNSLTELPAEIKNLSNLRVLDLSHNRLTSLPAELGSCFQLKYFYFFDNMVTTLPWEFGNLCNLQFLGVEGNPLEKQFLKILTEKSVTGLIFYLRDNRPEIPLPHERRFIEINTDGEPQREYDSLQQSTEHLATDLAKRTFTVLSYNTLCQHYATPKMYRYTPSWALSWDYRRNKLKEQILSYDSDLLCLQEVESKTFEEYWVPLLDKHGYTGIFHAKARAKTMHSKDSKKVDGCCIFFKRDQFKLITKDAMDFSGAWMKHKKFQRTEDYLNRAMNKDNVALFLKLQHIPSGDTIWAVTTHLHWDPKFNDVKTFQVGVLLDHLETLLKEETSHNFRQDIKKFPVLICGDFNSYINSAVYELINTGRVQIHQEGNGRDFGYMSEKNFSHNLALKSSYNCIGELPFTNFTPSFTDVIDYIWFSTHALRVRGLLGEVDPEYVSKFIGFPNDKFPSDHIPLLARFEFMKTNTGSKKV
T1 sequence (looked up) 2: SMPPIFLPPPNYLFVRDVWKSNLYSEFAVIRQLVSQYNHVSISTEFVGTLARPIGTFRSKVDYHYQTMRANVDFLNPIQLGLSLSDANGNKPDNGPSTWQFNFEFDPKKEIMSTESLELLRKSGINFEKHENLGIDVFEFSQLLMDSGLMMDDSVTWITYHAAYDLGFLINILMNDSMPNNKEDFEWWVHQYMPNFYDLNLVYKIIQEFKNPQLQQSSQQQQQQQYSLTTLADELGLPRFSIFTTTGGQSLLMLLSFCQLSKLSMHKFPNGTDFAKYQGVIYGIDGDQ

[3] = molecular target: the molecule itself; experiment: cryo-EM structure; substrate-free Pan2cat-Pan3Δ(1-162); Volta phase plate; nominal global resolution about 4.5 Å

B1: Pan3 (S. cerevisiae, C-terminal deca-histidine tag) (natural protein, UniProt P36102 1-679, looked up)
chain: MDKINPDWAKDIPCRNITIYGYCKKEKEGCPFKHSDNTTATTINDVPPPIDVGEATTPTMTSVPKFNAKVSASFTPMTVGSDSLTTVTNTTSAATNATGNIAMAATSATASTVNPMINPIVNSSLVNNNNNNSNISISIPTTASSSNYDPFNAPIFTPSSTSSIHTNANAHSFPFPSIANSGGININATDDNSNNMSMANNVPPPMQPPPIESSNLKYPRIYPPPHSLLQYHLYAPEQPSSLKSLLKPNERSADQLFIPNNIREDLTKKNLSILQVFPSSGKVIPSIVQDYFNLVPLNFNNNDFLNKTTLFKVFSNYDGKAYVLKRLPNIDKSMNPNKISKIYQIWSKINCTNLIKFRDIFQTTKFGDLSICLVFDYYPNSLSLYDYHFVNFPKFPITNNYLWIYLVQLTNVINSIHSQNLSIGNTLNWRKVLITGDPGRIKLSHCNFMDLLFNDDTDTVVSSGGSTIEGQQQLDYKYLGELLFNLSINIENSNNNTAPKEYRLEEITPQSIDDMRQIDDKFKDVLKYLISDNGDSKKSIHDLTSHFYDKMFMVLESSQTYTEYMESVLSRELENGRLFRLVNKLNCIFGRIESRIDINWSESGTKFPIILFYDYVFHQVDSNGKPIMDLTHVLRCLNKLDAGIQEKLMLVTPDELNCIIISYKELKDLIESTFRSITQ
notes: Pan3, S. cerevisiae; The Pan3 chain of m1, written alone for the pairs that touch in the structure and for co-purification; also called Pan3straight; Pan3bent; source: Trichoplusia ni Hi5 insect cells, co-expressed with Pan2, purified as a complex; not shown: His10, C-terminal, kept
stoichiometry N [1]: 2

B2: Not1(754-1000) (domain or fragment, S. cerevisiae, UniProt P25655 754-1000, looked up)
chain: RSRPVQEMIPLKFFAVDEVSCQINQEGAPKDVVEKVLFVLNNVTLANLNNKVDELKKSLTPNYFSWFSTYLVTQRAKTEPNYHDLYSKVIVAMGSGLLHQFMVNVTLRQLFVLLSTKDEQAIDKKHLKNLASWLGCITLALNKPIKHKNIAFREMLIEAYKENRLEIVVPFVTKILQRASESKIFKPPNPWTVGILKLLIELNEKANWKLSLTFEVEVLLKSFNLTTKSLKPSNFINTPEVIETLSG
notes: source: E. coli BL21 DE3, purified (IMAC, tag cleavage, heparin, SEC); not shown: SUMO, N-terminal, cleaved; His tag, N-terminal, cleaved
binding result [2]: binds

B3: Pan3Δ(1-162) (domain or fragment, S. cerevisiae, UniProt P36102 163-679, looked up)
chain: SIHTNANAHSFPFPSIANSGGININATDDNSNNMSMANNVPPPMQPPPIESSNLKYPRIYPPPHSLLQYHLYAPEQPSSLKSLLKPNERSADQLFIPNNIREDLTKKNLSILQVFPSSGKVIPSIVQDYFNLVPLNFNNNDFLNKTTLFKVFSNYDGKAYVLKRLPNIDKSMNPNKISKIYQIWSKINCTNLIKFRDIFQTTKFGDLSICLVFDYYPNSLSLYDYHFVNFPKFPITNNYLWIYLVQLTNVINSIHSQNLSIGNTLNWRKVLITGDPGRIKLSHCNFMDLLFNDDTDTVVSSGGSTIEGQQQLDYKYLGELLFNLSINIENSNNNTAPKEYRLEEITPQSIDDMRQIDDKFKDVLKYLISDNGDSKKSIHDLTSHFYDKMFMVLESSQTYTEYMESVLSRELENGRLFRLVNKLNCIFGRIESRIDINWSESGTKFPIILFYDYVFHQVDSNGKPIMDLTHVLRCLNKLDAGIQEKLMLVTPDELNCIIISYKELKDLIESTFRSITQ
notes: Pan3, S. cerevisiae, lacking residues 1-162; Pan3 chain of the substrate-free Pan2cat-Pan3Δ(1-162) cryo-EM sample; also called Pan3ΔN; source: Trichoplusia ni Hi5 insect cells, co-expressed with Pan2cat, purified as a complex
stoichiometry N [3]: 2
